The text below walks through data of patent US20250257099A1 (priority 2022, published 2025).

The target of assay [1] is MERS-CoV spike (S) protein (MERS-CoV) (UniProt K9N5Q8). Briefly: cell-based or functional assay.
Assay [2] has as its target SARS-CoV-2 spike (S) glycoprotein (SARS-CoV-2) (UniProt P0DTC2). Briefly: cell-based or functional assay.

In assay [1], “MERS-CoV C-lipopeptide (MERS-CoV S HRC residues 1251-1286, cholesterol-conjugated)” came in with an IC50, plaque-neutralization test, MERS-CoV infection of Vero E6 cells below 8 nM. In addition, the IC50, plaque-neutralization test, SARS-CoV-2 infection of Vero E6 cells in assay [2] worked out at 90 nM.
